Measurements: paper PMC12399569 (2025)

Target: purified hTMPRSS2 protein (human, UniProt O15393 1-492)
Test: SPR

Chain of purified hTMPRSS2 protein (O15393 whole entry): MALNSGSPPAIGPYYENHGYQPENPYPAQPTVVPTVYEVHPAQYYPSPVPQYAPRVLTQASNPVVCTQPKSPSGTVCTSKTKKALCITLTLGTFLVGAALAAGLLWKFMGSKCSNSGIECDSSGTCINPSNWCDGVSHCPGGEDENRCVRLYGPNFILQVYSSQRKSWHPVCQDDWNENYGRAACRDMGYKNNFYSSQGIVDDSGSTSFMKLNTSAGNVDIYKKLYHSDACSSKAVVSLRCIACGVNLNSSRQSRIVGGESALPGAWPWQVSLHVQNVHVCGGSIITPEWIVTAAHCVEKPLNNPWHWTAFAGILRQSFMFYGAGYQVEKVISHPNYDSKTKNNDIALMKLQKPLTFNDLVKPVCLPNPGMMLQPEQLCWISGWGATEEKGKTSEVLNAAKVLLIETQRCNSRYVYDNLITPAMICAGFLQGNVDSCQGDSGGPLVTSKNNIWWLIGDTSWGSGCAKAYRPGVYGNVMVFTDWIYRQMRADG

B1: Spike protein (recombinant, analyte of the ternary SPR experiment) (natural protein)
chain: CQTTNGLNTSYSVCNGCVGYSENVFAVESGGYIPSDFAFNNWFLLTNTSSVVDGVVRSFQPLLLNCLWSVSGLRFTTGFVYFNGTGRGDCKGFSSDVLSDVIRYNLNFEENLRRGTILFKTSYGVVVFYCTNNTLVSGDAHIPFGTVLGNFYCFVNTTIGNETTSAFVGALPKTVREFVISRTGHFYINGYRYFTLGNVEAVNFNVTTAETTDFCTVALASYADVLVNVSQTSIANIIYCNSVINRLRCDQLSFDVPDGFYSTSPIQSVELPVSIVSLPVYHKHTFIVLYVDFKPQSGGGKCFNCYPAGVNITLANFNETKGPLCVDTSHFTTKYVAVYANVGRWSASINTGNCPFSFGKVNNFVKFGSVCFSLKDIPGGCAMPIVANWAYSKYYTIGSLYVSWSDGDGITGVPQPVEGVSSFMNVTLDKCTKYNIYDVSGVGVIRVSNDTFLNGITYTSTSGNLLGFKDVTKGTIYSITPCNPPDQLVVYQQAVVGAMLSENFTSYGFSNVVELPKFFYASNGTYNCTDAVLTYSSFGVCADGSIIAVQPRNVSYDSVSAIVTANLSIPSNWTTSVQVEYLQITSTPIVVDCSTYVCNGNVRCVELLKQYTSACKTIEDALRNSARLESADVSEMLTFDKKAFTLANVSSFGDYNLSSVIPSLPTSGSRVAGRSAIEDILFSKLVTSGLGTVDADYKKCTKGLSIADLACAQYYNGIMVLPGVADAERMAMYTGSLIGGIALGGLTSAVSIPFSLAIQARLNYVALQTDVLQENQKILAASFNKAMTNIVDAFTGVNDAITQTSQALQTVATALNKIQDVVNQQGNSLNHLTSQLRQNFQAISSSIQAIYDRLDTIQADQQVDRLITGRLAALNVFVSHTLTKYTEVRASRQLAQQKVNECVKSQSKRYGFCGNGTHIFSIVNAAPEGLVFLHTVLLPTQYKDVEAWSGLCVDGTNGYVLRQPNLALYKEGNYYRITSRIMFEPRIPTMADFVQIENCNVTFVNISRSELQTIVPEYIDVNKTLQELSYKLPNYTVPDLVVEQYNQTILNLTSEISTLENKSAELNYTVQKLQTLIDNINSTLVDLKWLNRVETYIKWP
Kd: 1.36 µM
